Measured values: paper PMC5807507, “Crystal structures of a bacterial dipeptidyl peptidase IV reveal a novel substrate recognition mechanism distinct from that of mammalian orthologues” (Scientific Reports, 2018)

B1: PmDAP IV (Pseudoxanthomonas mexicana) (protein)
chain: AEKLTLEAITGSAPLSGPTLTKPQIAPDGSRVTFLRGKDRDRNRLDLWEYDIASGQTRLLVDSSVVLPGEEVLSDEEKARRERQRIAALSGIVDYQWSPDGKALLFPLGGELYFYDLTKSGRDAVRKLTNGGGFATDPKISPKGGFVSFIRDRNLWAIDLASGKEVQLTRDGSDTIGNGVAEFVADEEMDRHTGYWWAPDDAAIAFARIDETPVPVQKRYEVYPDRTEVVEQRYPAAGDHNVRVQLGVIAPKTGARPRWIDLGKDPDIYLARVDWRDPQRLTFQRQSRDQKKIELIETTLTNGTQRTLVTETSTTWVPLHNDLRFLKDGRFLWSSERSGFEHLYVASEDGSTLTALTQGEWVVDSLLAIDEAAGLAYVSGTRDGATEAHVYAVPLSGGEPRRLTQAPGMHAATFARNASVFVDSWSSDTTLPQIELFKADGTKLATLLVNDVSDATHPYAKYRAAHQPTAYGTLTAADGTTPLHYSLIKPAGFDPKKQYPVVVFVYGGPAAQTVTRAWPGRSDSFFNQYLAQQGYVVFTLDNRGTPRRGAAFGGALYGKQGTVEVDDQLRGIEWLKSQAFVDPARIGVYGWSNGGYMTLMLLAKHDEAYACGVAGAPVTDWALYDTHYTERYMDLPKANEAGYREASVFTHVDGIGAGKLLLIHGMADDNVLFTNSTKLMSELQKRGTPFELMTYPGAKHGLRGSDLLHRYRLTEDFFARCLKP
notes: M12I lies in the removed signal; no tag; 723 residues, 82-kDa; homodimer; crystal model Ala22-Pro745
B2: Human DPP IV (Homo sapiens) (protein)
chain: SRKTYTLTDYLKNTYRLKLYSLRWISDHEYLYKQENNILVFNAEYGNSSVFLENSTFDEFGHSINDYSISPDGQFILLEYNYVKQWRHSYTASYDIYDLNKRQLITEERIPNNTQWVTWSPVGHKLAYVWNNDIYVKIEPNLPSYRITWTGKEDIIYNGITDWVYEEEVFSAYSALWWSPNGTFLAYAQFNDTEVPLIEYSFYSDESLQYPKTVRVPYPKAGAVNPTVKFFVVNTDSLSSVTNATSIQITAPASMLIGDHYLCDVTWATQERISLQWLRRIQNYSVMDICDYDESSGRWNCLVARQHIEMSTTGWVGRFRPSEPHFTLDGNSFYKIISNEEGYRHICYFQIDKKDCTFITKGTWEVIGIEALTSDYLYYISNEYKGMPGGRNLYKIQLSDYTKVTCLSCELNPERCQYYSVSFSKEAKYYQLRCSGPGLPLYTLHSSVNDKGLRVLEDNSALDKMLQNVQMPSKKLDFIILNETKFWYQMILPPHFDKSKKYPLLLDVYAGPCSQKADTVFRLNWATYLASTENIIVASFDGRGSGYQGDKIMHAINRRLGTFEVEDQIEAARQFSKMGFVDNKRIAIWGWSYGGYVTSMVLGSGSGVFKCGIAVAPVSRWEYYDSVYTERYMGLPTPEDNLDHYRNSTVMSRAENFKQVEYLLIHGTADDNVHFQQSAQISKALVDVGVDFQAMWYTDEDHGIASSTAHQHIYTHMSHFIKQCFSLP
notes: homodimer

What was measured:
[1] = substrate: Cc1cc(=O)oc2cc(NC(=O)[C@@H]3CCCN3C(=O)CN)ccc12; assay: fluorescence of released MCA; Michaelis-Menten nonlinear fit; format: biochemical, Pseudoxanthomonas mexicana; conditions: […] substrate, […] sodium phosphate pH […] EDTA, […] Tween […] K, […] min
Text: fluorescence of released MCA; Michaelis-Menten nonlinear fit on PmDAP IV

[2] = substrate: Cc1cc(=O)oc2cc(NC(=O)[C@@H]3CCCN3C(=O)CN)ccc12; assay: as above; format: biochemical, Homo sapiens; conditions: […] substrate, […] sodium phosphate pH […] EDTA, […] Tween […] K, […] min
Text: fluorescence of released MCA; Michaelis-Menten nonlinear fit on Human DPP IV

Protein	Km [1] [µM]	kcat [1] [s⁻¹]	kcat/Km [1] [M⁻¹ s⁻¹]	Km [2] [µM]	kcat [2] [s⁻¹]	kcat/Km [2] [M⁻¹ s⁻¹]
B1	19.4 ± 0.8	19.2 ± 0.4	989000 ± 35000			
B2				37.1 ± 1.6	35.3 ± 1	952000 ± 13000
